According to patent publication US20200299400A1:

Target: human CD73 on human cell lines (human) (UniProt P21589)
Assay: cell-based or functional assay

Sequence of human CD73 on human cell lines (human) (P21589 27-549): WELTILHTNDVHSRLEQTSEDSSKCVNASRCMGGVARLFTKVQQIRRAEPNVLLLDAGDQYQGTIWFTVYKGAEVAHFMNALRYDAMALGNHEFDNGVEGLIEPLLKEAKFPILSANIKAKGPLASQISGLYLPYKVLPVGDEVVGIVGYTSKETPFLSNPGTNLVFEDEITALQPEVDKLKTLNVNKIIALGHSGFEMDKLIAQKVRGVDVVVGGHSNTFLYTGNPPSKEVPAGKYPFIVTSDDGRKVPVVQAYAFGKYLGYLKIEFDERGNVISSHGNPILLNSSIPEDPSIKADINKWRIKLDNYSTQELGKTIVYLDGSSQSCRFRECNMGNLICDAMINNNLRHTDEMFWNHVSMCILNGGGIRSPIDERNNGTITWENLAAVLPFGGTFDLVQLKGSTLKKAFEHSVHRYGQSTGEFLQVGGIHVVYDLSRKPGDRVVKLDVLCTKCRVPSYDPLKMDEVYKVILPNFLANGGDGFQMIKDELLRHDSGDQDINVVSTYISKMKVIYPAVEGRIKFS

B1: mAb-CD73.4-IgG2 (antibody, V domains shown, not shown: a dimerising Fc or GST)
VH: QVQLVESGGGVVQPGRSLRLSCAASGFTFSNYGMHWVRQAPGKGLEWVAVILYDGSNKYYPDSVKGRFTISRDNSKNTLYLQMNSLRAEDTAVYYCARGGSSWYPDSFDIWGQGTMVTVSS
VL: DIQMTQSPSSLSASVGDRVTITCRASQGISSWLAWYQQKPEKAPKSLIYAASSLQSGVPSRFSGSGSGTDFTLTISSLQPEDFATYYCQQYNSYPLTFGGGTKVEIKR
Question: How did the internalization T1/2, Calu6 turn out when B1 was run?
Answer: Its internalization T1/2, Calu6 is 36 min.

Question: What about the internalization T1/2, NCI-H292 of the same binder?
Answer: Its internalization T1/2, NCI-H292 is 16.6 min.

Question: And the internalization Ymax, Calu6?
Answer: Its internalization Ymax, Calu6 is 75.6%.

Question: And the internalization Ymax, NCI-H292?
Answer: Its internalization Ymax, NCI-H292 is 78.4%.
